Measurements published in patent publication EP1336618A1.
Where “and” joins values, the source holds several entries; their conditions need not be identical. Equal values may be shown once.

Biological target: human C3b (human) (UniProt P01024)
Experiment: cell-based or functional assay

Chain of UniProt P01024 (P01024 749-1663 limits assumed, chain 1 of 2): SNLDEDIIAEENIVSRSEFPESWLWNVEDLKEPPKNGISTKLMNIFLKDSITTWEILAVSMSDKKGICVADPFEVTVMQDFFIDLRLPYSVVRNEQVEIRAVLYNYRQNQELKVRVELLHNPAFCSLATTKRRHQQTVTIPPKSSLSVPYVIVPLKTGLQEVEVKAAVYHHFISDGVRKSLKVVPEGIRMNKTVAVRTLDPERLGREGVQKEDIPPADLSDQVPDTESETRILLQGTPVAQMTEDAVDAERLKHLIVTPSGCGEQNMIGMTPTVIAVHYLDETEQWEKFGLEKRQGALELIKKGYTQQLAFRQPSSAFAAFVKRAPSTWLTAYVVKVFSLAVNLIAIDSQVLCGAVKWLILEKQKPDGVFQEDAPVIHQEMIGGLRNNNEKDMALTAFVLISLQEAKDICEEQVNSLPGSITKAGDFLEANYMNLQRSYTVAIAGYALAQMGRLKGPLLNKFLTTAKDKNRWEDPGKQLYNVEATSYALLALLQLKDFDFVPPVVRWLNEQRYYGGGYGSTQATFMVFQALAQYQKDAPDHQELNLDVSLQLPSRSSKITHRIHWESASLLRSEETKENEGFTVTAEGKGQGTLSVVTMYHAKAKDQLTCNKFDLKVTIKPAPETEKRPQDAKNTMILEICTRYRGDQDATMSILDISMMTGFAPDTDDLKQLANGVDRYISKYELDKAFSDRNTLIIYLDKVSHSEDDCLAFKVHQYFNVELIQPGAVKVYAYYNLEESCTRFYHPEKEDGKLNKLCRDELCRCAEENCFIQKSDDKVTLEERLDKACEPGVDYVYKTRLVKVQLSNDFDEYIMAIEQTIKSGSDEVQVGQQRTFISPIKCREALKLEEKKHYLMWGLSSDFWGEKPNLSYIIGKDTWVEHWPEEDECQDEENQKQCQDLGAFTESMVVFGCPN
Chain of UniProt P01024 (P01024 23-667 limits assumed, chain 2 of 2): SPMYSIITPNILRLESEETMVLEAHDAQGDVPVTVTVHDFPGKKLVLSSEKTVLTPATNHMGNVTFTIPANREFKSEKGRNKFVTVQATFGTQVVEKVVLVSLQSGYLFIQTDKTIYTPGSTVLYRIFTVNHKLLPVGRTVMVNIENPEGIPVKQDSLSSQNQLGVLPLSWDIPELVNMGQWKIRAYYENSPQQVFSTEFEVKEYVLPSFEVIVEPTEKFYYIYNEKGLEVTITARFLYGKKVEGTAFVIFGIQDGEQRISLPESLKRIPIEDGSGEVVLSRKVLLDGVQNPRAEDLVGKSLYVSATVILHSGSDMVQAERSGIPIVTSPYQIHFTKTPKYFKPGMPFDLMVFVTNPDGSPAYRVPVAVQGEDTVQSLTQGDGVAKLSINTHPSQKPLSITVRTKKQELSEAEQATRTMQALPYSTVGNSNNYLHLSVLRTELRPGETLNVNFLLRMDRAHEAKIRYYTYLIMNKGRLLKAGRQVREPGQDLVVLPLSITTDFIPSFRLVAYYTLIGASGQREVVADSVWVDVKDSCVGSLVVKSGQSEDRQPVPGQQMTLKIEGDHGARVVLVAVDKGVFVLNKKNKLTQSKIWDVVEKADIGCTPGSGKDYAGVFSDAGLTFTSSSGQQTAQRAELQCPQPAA

human FHL-1 (factor H like protein 1), recombinant (from UniProt P08603 19-449)
half-maximum cleavage activity of hC3b (cofactor dilution, start 0.7 µg in 5 µl) (fold dilution (1:x)): 16 and 8

recombinant fragment pFH SCR1-4 (porcine complement regulator factor H, short consensus repeats 1-4)
difference in half-maximum activity in the cleavage of human C3b against human FHL-1 (dilution step): < 1 | half-maximum cleavage activity of hC3b (cofactor dilution, start 0.7 µg in 5 µl) (fold dilution (1:x)): 8 and 16
